Results reported in patent US20250042996A1 (ALLAKOS, published 2025).
Like-named read-outs stand apart in the source and are kept apart here.

Tests used:
[1] = target: human Siglec-9 (expressed on transfected Expi293 cells; also on primary human monocytes) (human) (UniProt Q9Y336)
[2] = target: human SIGLEC-9-ECD-Fc recombinant fusion protein (human) (UniProt Q9Y336); assay: column 'Blocking EC50 (nM)': ligand blocking assay, antibody pre-mixed with Siglec-9-ECD-Fc, blocked binding to Siglec-9 ligands on T47D cells, flow cytometry
[3] = target: human SIGLEC-9-ECD-Fc recombinant fusion protein (human) (UniProt Q9Y336); assay: column 'Displacement EC50 (nM)': ligand displacement assay, Siglec-9-ECD-Fc pre-bound to ligands on T47D cells, antibody titrated, remaining Siglec-9-ECD-Fc by flow cytometry
[4] = target: human SIGLEC-9-ECD-Fc recombinant fusion protein (human) (UniProt Q9Y336); assay: Siglec-9/Ligand Blocking Assay: antibody titrated against Siglec-9-ECD-Fc, blocked binding to ligands on T47D cells, median MFI by flow cytometry; unit inferred, x axis 'Ab (nM)'
[5] = target: human SIGLEC-9-ECD-Fc recombinant fusion protein (human) (UniProt Q9Y336); assay: Ligand Displacement Assay: Siglec-9-ECD-Fc pre-bound to ligands on T47D cells, antibody titrated, remaining Siglec-9-ECD-Fc as median MFI by flow cytometry; unit inferred, x axis 'Ab (nM)'
[6] = target: human SIGLEC-9-ECD-Fc recombinant fusion protein (human) (UniProt Q9Y336); assay: Siglec-9/Ligand Blocking Assay, negative control: fitted value printed for an almost flat curve; unit inferred, x axis 'Ab (nM)'
[7] = target: human SIGLEC-9-ECD-Fc recombinant fusion protein (human) (UniProt Q9Y336); assay: Ligand Displacement Assay, negative control: fitted value printed for a curve that only dips at the last points; unit inferred, x axis 'Ab (nM)'
[8] = target: human Siglec-9 (expressed on transfected Expi293 cells; also on primary human monocytes) (human, UniProt Q9Y336 18-463); assay: cell-based or functional assay
[9] = target: T1, human SIGLEC-9-ECD-Fc recombinant fusion protein (human, UniProt Q9Y336 18-343); assay: bio-layer interferometry (ForteBio), antibody captured on anti-mouse sensors, Siglec-9-ECD as analyte, 25 C, 1:1 global fit
T1 construct: The range starts at residue 1, so it includes the signal peptide; No cleavage site is stated; Secreted from CHOK1SV cells and purified on Protein A; also called Siglec-9-ECD-huFc; S9-ECD-Fc
Procedure: Antibody binding analysis was carried out by bio-layer interferometry (ForteBio). […] Antibodies were captured on anti-mouse kinetic sensors at 0.5 ug/mL; Siglec-9-ECD was used as analyte and diluted in assay buffer from 50 nM to 1.56 nM with 2x dilutions. Two-minute associations were conducted, followed by 10-minute dissociations. Results were determined relative to a control empty reference AHC sensor, and analyzed using ForteBio analysis software with 1:1 global fit parameters.

[10] = target: T1, human SIGLEC-9-ECD-Fc recombinant …; assay: column 'Blocking EC50 (nM)': ligand blocking assay, antibody pre-mixed with Siglec-9-ECD-Fc, blocked binding to Siglec-9 ligands on T47D cells, flow cytometry
Procedure: (§1) Recombinant Siglec-9-Fc was added to T47D cells in the presence of anti-Siglec-9 antibodies at increasing concentrations and binding of the complex was detected on the cell surface. […] The ability of an antibody to displace ligand binding was also determined (FIGS. 3 and 5).
(§2) Human breast cancer cell line T47D, which expresses high level of ligands for Siglec-9, was used to determine the blocking activity of anti-Siglec-9 antibodies in a cell-based assay. Two-fold serial dilutions of anti-Siglec-9 antibodies (40 nM to 40 pM) were combined with 10 nM Siglec-9-ECD-Fc in FACS buffer (PBS/2% BSA) and incubated on ice for 30 minutes. 2.5×10e4 T47D cells per well were added to round bottom 96-well tissue culture plates in FACS buffer, plates were centrifuged at 400g for 2 min, supernatant was removed and cells were re-suspended in 100 ul of the antibody-Siglec-9 complexes. After a 1 hour incubation on ice, cells were washed twice and incubated for 30 minutes with goat anti-human F(ab′)₂ fragment conjugated to AF647 (Jackson IR labs) at lug/ml in FACS buffer. After two more washes, cells were fixed in PBS/2% PFA and acquired on a Novocyte flow cytometer (ACEA biosciences). IC₅₀ values for blocking were determined based on plotting mean fluorescence in the APC channel and analysis using Prism Graphpad software.

[11] = target: T1, human SIGLEC-9-ECD-Fc recombinant …; assay: column 'Displacement EC50 (nM)': ligand displacement assay, Siglec-9-ECD-Fc pre-bound to ligands on T47D cells, antibody titrated, remaining Siglec-9-ECD-Fc by flow cytometry
Procedure: as §1
(§3) T47D cells were treated with 2ug/mL S9-ECD-Fc for 1 hour on ice. After the 1 hr preincubation of S9, a titration curve of anti Siglec-9 msIgG1s were added for 1 hr incubation at +37° C. Cells were then washed to remove unbound S9. Bound S9 were detected through the human Fc using Alexa488 conjugated secondary. Levels of remaining S9 were assessed by flow cytometry”

[12] = target: T1, human SIGLEC-9-ECD-Fc recombinant …; assay: Siglec-9/Ligand Blocking Assay: antibody titrated against Siglec-9-ECD-Fc, blocked binding to ligands on T47D cells, median MFI by flow cytometry; unit inferred, x axis 'Ab (nM)'
Procedure: as §1, §2

[13] = target: T1, human SIGLEC-9-ECD-Fc recombinant …; assay: Ligand Displacement Assay: Siglec-9-ECD-Fc pre-bound to ligands on T47D cells, antibody titrated, remaining Siglec-9-ECD-Fc as median MFI by flow cytometry; unit inferred, x axis 'Ab (nM)'
Procedure: as §1, §3

[14] = target: T1, human SIGLEC-9-ECD-Fc recombinant …; assay: BLI (ForteBio Octet Red), SIGLEC-9-ECD-Fc on anti-human Fc sensors, Fab in solution, monovalent
Procedure: (§4) Anti-human Fc sensors were coated with SIGLEC-9-ECD-Fc at a concentration of 20 μg/ml in 1XHBS+1% BSA buffer (GE Lifesciences). After a brief wash with 1XHBS+1% BSA buffer, m9A12, ch9A12 or the humanized Fabs were applied to the antigen-coated sensors. The monovalent binding association and dissociation rates were calculated by the ForteBio Octet Red analysis software.

[15] = target: T1, human SIGLEC-9-ECD-Fc recombinant …; assay: as above; remark: listed apart in the source
Procedure: The V-regions from the humanized Fab were re-formatted for expression as a human IgG4.
as §4

human SIGLEC-9-ECD-Fc recombinant fusion protein (human), sequence (Q9Y336 18-343): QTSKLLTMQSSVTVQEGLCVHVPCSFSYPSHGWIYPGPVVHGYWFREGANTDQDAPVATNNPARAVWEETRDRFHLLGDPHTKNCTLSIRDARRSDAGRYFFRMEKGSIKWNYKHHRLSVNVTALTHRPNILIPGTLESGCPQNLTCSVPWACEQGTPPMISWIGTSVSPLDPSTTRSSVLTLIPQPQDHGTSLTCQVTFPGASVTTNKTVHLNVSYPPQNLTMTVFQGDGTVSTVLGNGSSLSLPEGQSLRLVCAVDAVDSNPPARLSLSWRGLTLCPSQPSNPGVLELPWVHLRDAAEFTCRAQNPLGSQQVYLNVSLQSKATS
T1 sequence (Q9Y336 18-343): as above
human Siglec-9 (expressed on transfected Expi293 cells; also on primary human monocytes) (human), sequence (Q9Y336 18-463 limits assumed): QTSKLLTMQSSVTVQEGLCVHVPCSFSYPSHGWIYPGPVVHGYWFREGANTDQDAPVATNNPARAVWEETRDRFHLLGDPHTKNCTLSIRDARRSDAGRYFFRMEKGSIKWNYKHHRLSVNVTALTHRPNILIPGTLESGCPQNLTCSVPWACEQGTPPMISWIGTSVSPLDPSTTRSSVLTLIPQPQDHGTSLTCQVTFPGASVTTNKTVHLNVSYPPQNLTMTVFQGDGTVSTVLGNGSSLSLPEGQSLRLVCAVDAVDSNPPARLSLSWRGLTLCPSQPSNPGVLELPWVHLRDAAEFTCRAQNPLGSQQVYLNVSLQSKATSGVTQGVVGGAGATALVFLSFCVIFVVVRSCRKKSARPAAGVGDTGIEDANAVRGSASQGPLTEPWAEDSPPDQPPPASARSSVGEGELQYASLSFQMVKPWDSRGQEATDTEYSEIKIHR
human Siglec-9 (expressed on transfected Expi293 cells; also on primary human monocytes), sequence (Q9Y336 18-463 limits assumed): as above

anti-Siglec-9 monoclonal antibody MAB1139 (R&D Systems)
Internalization EC50: loss of surface Siglec-9 on CD14+ monocytes in PBMC after 24 h [1]: 0.165 nM
EC50 [2]: 4.4 nM
EC50 [3]: 2 nM
IC50 [4]: 4.39 nM
IC50 [5]: 2 nM

Isotype (p3) (antibody)
IC50 [6]: 71.3 nM

msIgG1 (p1) (antibody)
IC50 [7]: 140 nM

B1: mouse anti-Siglec-9 monoclonal antibody 9A12 (antibody, V domains shown)
VH: QVQLQQSGAELVRPGASVTLSCKASDYTFTDYEMHWVKQTPVHGLEWIGAIDPEAGGTDYNQKFKGKAILTADKSSSTAYMELRSLTSEDSAVYYCTRVWLHWGQGTTLTVSS
VL: NIVMTQSPSSLAVSAGEKVTMNCKSSQSVLYSSNQKNYLAWYQQKPGQSPKMLIYWASTRESGVPDRFTGSGSGTDFTLTISSVQSEDLAVYYCHQYLSSNTFGGGTKLEIK
notes: Mouse monoclonal antibody; also called m9A12
Internalization EC50: loss of surface Siglec-9 on CD14+ monocytes in PBMC after 24 h [8]: 0.125 nM
Kd [9]: < 0.001 nM
EC50 [10]: 2.62 nM
EC50 [11]: 1.52 nM
IC50 [12]: 2.62 nM
IC50 [13]: 1.52 nM

B2: Tf83 Fab (Fab)
chain 1: QVQLVQSGAEVKKPGASVKVSCKASDYTFTDYEMHWVRQAPGQGLEWMGAINPEAGGTDYAQKFQGRVTMTADTSISTAYMELSRLRSDDTAVYYCTRVWLHWGQGTLVTVSS
chain 2: DIVMTQSPDSLAVSLGERVTMNCKSSQSVLYSSNQKNYLAWYQQKPGQPPKMLIYWASTRESGVPDRFSGSGSGTDFTLTISSLQAEDVAVYYCHQYLSSNTFGQGTKLEIK
Kd [14]: 9.99 nM
koff [14]: 0.00297 s⁻¹
kon [14]: 298000 M⁻¹ s⁻¹

B3: Tf73 Fab (Fab, V domains shown)
VH: QVQLVQSGAEVKKPGASVKVSCKASDYTFTGYEMHWVRQAPGQGLEWMGAIDPEAGGTDYAQKFQGRVTMTADTSISTAYMELSRLRSDDTAVYYCTRVWLHWGQGTLVTVSS
VL: DIVMTQSPDSLAVSLGERVTMNCKSSQSVLYSSNQKNYLAWYQQKPGQPPKMLIYWASTRESGVPDRFSGSGSGTDFTLTISSLQAEDVAVYYCHQYLSSNTFGQGTKLEIK
notes: also called AK643-3 / AK628-1
Kd [14]: 0.575 nM
koff [14]: 0.000184 s⁻¹
kon [14]: 319000 M⁻¹ s⁻¹
Kd [15]: 0.575 nM
koff [15]: 0.000184 s⁻¹
kon [15]: 319000 M⁻¹ s⁻¹

B4: Tf84 Fab (Fab)
chain 1: QVQLVQSGAEVKKPGASVKVSCKASDYTFTDYEMHWVRQAPGQGLEWMGAINPESGGTDYAQKFQGRVTMTADTSISTAYMELSRLRSDDTAVYYCTRVWLHWGQGTLVTVSS
chain 2: DIVMTQSPDSLAVSLGERVTMNCKSSQSVLYSSNQKNYLAWYQQKPGQPPKMLIYWASTRESGVPDRFSGSGSGTDFTLTISSLQAEDVAVYYCHQYLSSNTFGQGTKLEIK
Kd [14]: 2.24 nM
koff [14]: 0.00295 s⁻¹
kon [14]: 1.32e+06 M⁻¹ s⁻¹

B5: Tf71 Fab (Fab)
chain 1: QVQLVQSGAEVKKPGASVKVSCKASGYTFTDYEMHWVRQAPGQGLEWMGAIDPEAGGTDYAQKFQGRVTMTADTSISTAYMELSRLRSDDTAVYYCTRVWLHWGQGTLVTVSS
chain 2: DIVMTQSPDSLAVSLGERVTMNCKSSQSVLYSSNQKNYLAWYQQKPGQPPKMLIYWASTRESGVPDRFSGSGSGTDFTLTISSLQAEDVAVYYCHQYLSSNTFGQGTKLEIK
Kd [14]: 0.533 nM
koff [14]: 0.000232 s⁻¹
kon [14]: 435000 M⁻¹ s⁻¹

B6: Tf63 Fab (Fab, V domains shown)
VH: QVQLVQSGAEVKKPGASVKVSCKASDYTFTDYEMHWVRQAPGQGLEWMGAIDPEAGGTDYAQKFQGRVTMTADTSISTAYMELSRLRSDDTAVYYCTRVWLHWGQGTLVTVSS
VL: DIVMTQSPDSLAVSLGERVTMNCKSSQSVLYSSNQKNYLAWYQQKPGQPPKMLIYWASTRESGVPDRFSGSGSGTDFTLTISSLQAEDVAVYYCHQYLSSNTFGQGTKLEIK
notes: Humanized 9A12 Fab; also called AK639-12 / AK628-1
Kd [15]: 0.66 nM
koff [15]: 0.00016 s⁻¹
kon [15]: 242000 M⁻¹ s⁻¹
